The results in this text go back to article PMC7055370, “Structure of the MICU1–MICU2 heterodimer provides insights into the gatekeeping threshold shift” (IUCrJ, 2020).

This data set deals with the molecule itself. The data set is described as follows: crystal structure; apo MICU1 ΔC - MICU2 ΔC (SeMet) mixed at a 1:1 molar ratio; crystals at 20°C in 20%(w/v) PEG 3350, 0.2 M ammonium citrate tribasic pH 7.5; 3.1 Å, SAD.

B1: human MICU2 ΔC helix (residues 84–401), selenomethionine derivative (domain or fragment, UniProt Q8IYU8 84-401, looked up)
chain: SLRKQRFMQFSSLEHEGEYYMTPRDFLFSVMFEQMERKTSVKKLTKKDIEDTLSGIQTAGCGSTFFRDLGDKGLISYTEYLFLLTILTKPHSGFHVAFKMLDTDGNEMIEKREFFKLQKIISKQDDLMTVKTNETGYQEAIVKEPEINTTLQMRFFGKRGQRKLHYKEFRRFMENLQTEIQEMEFLQFSKGLSFMRKEDFAEWLLFFTNTENKDIYWKNVREKLSAGESISLDEFKSFCHFTTHLEDFAIAMQMFSLAHRPVRLAEFKRAVKVATGQELSNNILDTVFKIFDLDGDECLSHEEFLGVLKNRMHRGLWV
modifications: selenomethionine (SeMet) derivative
notes: human MICU2 (mitochondrial calcium uptake protein 2), residues 84-401, without the C-terminal helix; pCold II vector with 6x His tag at the N terminus; also called mitochondrial calcium uptake protein 2; source: E. coli B834(DE3), purified (Ni-IDA, SEC); not shown: His6, N-terminal, kept
Regarding B1, the binding result is recorded as “binds”.
